In patent US20260217835A1 (published 2026):

What was measured:
[1] = biological target: the molecule itself; assay: co-expression of full-length heavy chain, light chain and Fc fragment in Expi293F, affinity purification, SEC peak area ratio;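 also: purified antibodies analysed by size exclusion chromatography with UV detection at 215 nm, each species given as share of total chromatogram peak area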
[2] = biological target: T1, IgG2 Fc fragment without modification (SEQ ID NO: 103) (Homo sapiens (Human), UniProt P01859 99-324 = IgG part); assay: as above
T1 construct: Fc fragment co-expressed with a full-length heavy chain and the light chain; the associating unit is one Fc chain; also called WT-IgG2 Fc fragment

Heteromultimer (%) [2] [%] | Binder | Homo full-length heavy chain (%) [1] [%]
0 | IgG1 full-length heavy chain E345R/K360E/D399M/Y407A/K409V (SEQ ID NO: 58) with light chain SEQ ID NO: 61 (antibody, also called Sample No. 230) heavy: QVQLQESGPGLVRPSQTLSLTCTVSGYSITSDHAWSWVRQPPGRGLEWIGYISYSGITTYNPSLKSRVTMLRDTSKNQFSLRLSSVTAADTAVYYCARSLARTTAMDYWGQGSLVTVSSASTKGPSVFPLAPSSKSTSGGTAALGCLVKDYFPEPVTVSWNSGALTSGVHTFPAVLQSSGLYSLSSVVTVPSSSLGTQTYICNVNHKPSNTKVDKRVEPKSCDKTHTCPPCPAPELLGGPSVFLFPPKPKDTLMISRTPEVTCVVVDVSHEDPEVKFNWYVDGVEVHNAKTKPREEQYNSTYRVVSVLTVLHQDWLNGKEYKCKVSNKALPAPIEKTISKAKGQPRRPQVYTLPPSREEMTENQVSLTCLVKGFYPSDIAVEWESNGQPENNYKTTPPVLMSDGSFFLASVLTVDKSRWQQGNVFSCSVMHEALHNHYTQKSLSLSP light: not shown | 84.3
0 | IgG1 full-length heavy chain E345R/Q347R/K360D/T366V/D399M/Y407A/K409V (SEQ ID NO: 55) with light chain SEQ ID NO: 61 (antibody) heavy: QVQLQESGPGLVRPSQTLSLTCTVSGYSITSDHAWSWVRQPPGRGLEWIGYISYSGITTYNPSLKSRVTMLRDTSKNQFSLRLSSVTAADTAVYYCARSLARTTAMDYWGQGSLVTVSSASTKGPSVFPLAPSSKSTSGGTAALGCLVKDYFPEPVTVSWNSGALTSGVHTFPAVLQSSGLYSLSSVVTVPSSSLGTQTYICNVNHKPSNTKVDKRVEPKSCDKTHTCPPCPAPELLGGPSVFLFPPKPKDTLMISRTPEVTCVVVDVSHEDPEVKFNWYVDGVEVHNAKTKPREEQYNSTYRVVSVLTVLHQDWLNGKEYKCKVSNKALPAPIEKTISKAKGQPRRPRVYTLPPSREEMTDNQVSLVCLVKGFYPSDIAVEWESNGQPENNYKTTPPVLMSDGSFFLASVLTVDKSRWQQGNVFSCSVMHEALHNHYTQKSLSLSP light: not shown | 83.5
0 | IgG1 full-length heavy chain T350V/L351Y/T366L/K392L/T394W/F405A/Y407V (SEQ ID NO: 60) with light chain SEQ ID NO: 61 (antibody) heavy: QVQLQESGPGLVRPSQTLSLTCTVSGYSITSDHAWSWVRQPPGRGLEWIGYISYSGITTYNPSLKSRVTMLRDTSKNQFSLRLSSVTAADTAVYYCARSLARTTAMDYWGQGSLVTVSSASTKGPSVFPLAPSSKSTSGGTAALGCLVKDYFPEPVTVSWNSGALTSGVHTFPAVLQSSGLYSLSSVVTVPSSSLGTQTYICNVNHKPSNTKVDKRVEPKSCDKTHTCPPCPAPELLGGPSVFLFPPKPKDTLMISRTPEVTCVVVDVSHEDPEVKFNWYVDGVEVHNAKTKPREEQYNSTYRVVSVLTVLHQDWLNGKEYKCKVSNKALPAPIEKTISKAKGQPREPQVYVYPPSREEMTKNQVSLLCLVKGFYPSDIAVEWESNGQPENNYLTWPPVLDSDGSFALVSKLTVDKSRWQQGNVFSCSVMHEALHNHYTQKSLSLSP light: not shown | 85.8
0 | IgG1 full-length heavy chain E356K/K392D/D399K/K409D (SEQ ID NO: 56) with light chain SEQ ID NO: 61 (antibody, also called Sample No. 229) heavy: QVQLQESGPGLVRPSQTLSLTCTVSGYSITSDHAWSWVRQPPGRGLEWIGYISYSGITTYNPSLKSRVTMLRDTSKNQFSLRLSSVTAADTAVYYCARSLARTTAMDYWGQGSLVTVSSASTKGPSVFPLAPSSKSTSGGTAALGCLVKDYFPEPVTVSWNSGALTSGVHTFPAVLQSSGLYSLSSVVTVPSSSLGTQTYICNVNHKPSNTKVDKRVEPKSCDKTHTCPPCPAPELLGGPSVFLFPPKPKDTLMISRTPEVTCVVVDVSHEDPEVKFNWYVDGVEVHNAKTKPREEQYNSTYRVVSVLTVLHQDWLNGKEYKCKVSNKALPAPIEKTISKAKGQPREPQVYTLPPSRKEMTKNQVSLTCLVKGFYPSDIAVEWESNGQPENNYDTTPPVLKSDGSFFLYSDLTVDKSRWQQGNVFSCSVMHEALHNHYTQKSLSLSP light: not shown | 81.4
0 | IgG1 full-length heavy chain Q347E/S354Y/T366Y/Y407T (SEQ ID NO: 39) with light chain SEQ ID NO: 61 (antibody) heavy: QVQLQESGPGLVRPSQTLSLTCTVSGYSITSDHAWSWVRQPPGRGLEWIGYISYSGITTYNPSLKSRVTMLRDTSKNQFSLRLSSVTAADTAVYYCARSLARTTAMDYWGQGSLVTVSSASTKGPSVFPLAPSSKSTSGGTAALGCLVKDYFPEPVTVSWNSGALTSGVHTFPAVLQSSGLYSLSSVVTVPSSSLGTQTYICNVNHKPSNTKVDKRVEPKSCDKTHTCPPCPAPELLGGPSVFLFPPKPKDTLMISRTPEVTCVVVDVSHEDPEVKFNWYVDGVEVHNAKTKPREEQYNSTYRVVSVLTVLHQDWLNGKEYKCKVSNKALPAPIEKTISKAKGQPREPEVYTLPPYREEMTKNQVSLYCLVKGFYPSDIAVEWESNGQPENNYKTTPPVLDSDGSFFLTSKLTVDKSRWQQGNVFSCSVMHEALHNHYTQKSLSLSP light: not shown | 82.9
0 | IgG1 full-length heavy chain K392D/D399K/K409D (SEQ ID NO: 50) with light chain SEQ ID NO: 61 (antibody) heavy: QVQLQESGPGLVRPSQTLSLTCTVSGYSITSDHAWSWVRQPPGRGLEWIGYISYSGITTYNPSLKSRVTMLRDTSKNQFSLRLSSVTAADTAVYYCARSLARTTAMDYWGQGSLVTVSSASTKGPSVFPLAPSSKSTSGGTAALGCLVKDYFPEPVTVSWNSGALTSGVHTFPAVLQSSGLYSLSSVVTVPSSSLGTQTYICNVNHKPSNTKVDKRVEPKSCDKTHTCPPCPAPELLGGPSVFLFPPKPKDTLMISRTPEVTCVVVDVSHEDPEVKFNWYVDGVEVHNAKTKPREEQYNSTYRVVSVLTVLHQDWLNGKEYKCKVSNKALPAPIEKTISKAKGQPREPQVYTLPPSREEMTKNQVSLTCLVKGFYPSDIAVEWESNGQPENNYDTTPPVLKSDGSFFLYSDLTVDKSRWQQGNVFSCSVMHEALHNHYTQKSLSLSP light: not shown | 81.4
0 | IgG1 full-length heavy chain E356K/D399K/K409E/K439E (SEQ ID NO: 36) with light chain SEQ ID NO: 61 (antibody) heavy: QVQLQESGPGLVRPSQTLSLTCTVSGYSITSDHAWSWVRQPPGRGLEWIGYISYSGITTYNPSLKSRVTMLRDTSKNQFSLRLSSVTAADTAVYYCARSLARTTAMDYWGQGSLVTVSSASTKGPSVFPLAPSSKSTSGGTAALGCLVKDYFPEPVTVSWNSGALTSGVHTFPAVLQSSGLYSLSSVVTVPSSSLGTQTYICNVNHKPSNTKVDKRVEPKSCDKTHTCPPCPAPELLGGPSVFLFPPKPKDTLMISRTPEVTCVVVDVSHEDPEVKFNWYVDGVEVHNAKTKPREEQYNSTYRVVSVLTVLHQDWLNGKEYKCKVSNKALPAPIEKTISKAKGQPREPQVYTLPPSRKEMTKNQVSLTCLVKGFYPSDIAVEWESNGQPENNYKTTPPVLKSDGSFFLYSELTVDKSRWQQGNVFSCSVMHEALHNHYTQESLSLSP light: not shown | 84.3
0 | IgG1 full-length heavy chain E356K/K392D/D399K/K439E (SEQ ID NO: 48) with light chain SEQ ID NO: 61 (antibody) heavy: QVQLQESGPGLVRPSQTLSLTCTVSGYSITSDHAWSWVRQPPGRGLEWIGYISYSGITTYNPSLKSRVTMLRDTSKNQFSLRLSSVTAADTAVYYCARSLARTTAMDYWGQGSLVTVSSASTKGPSVFPLAPSSKSTSGGTAALGCLVKDYFPEPVTVSWNSGALTSGVHTFPAVLQSSGLYSLSSVVTVPSSSLGTQTYICNVNHKPSNTKVDKRVEPKSCDKTHTCPPCPAPELLGGPSVFLFPPKPKDTLMISRTPEVTCVVVDVSHEDPEVKFNWYVDGVEVHNAKTKPREEQYNSTYRVVSVLTVLHQDWLNGKEYKCKVSNKALPAPIEKTISKAKGQPREPQVYTLPPSRKEMTKNQVSLTCLVKGFYPSDIAVEWESNGQPENNYDTTPPVLKSDGSFFLYSKLTVDKSRWQQGNVFSCSVMHEALHNHYTQESLSLSP light: not shown | 85.1
0 | IgG1 full-length heavy chain Q347R/K360E/D399V/F405T/K409W (SEQ ID NO: 31) with light chain SEQ ID NO: 61 (antibody) heavy: QVQLQESGPGLVRPSQTLSLTCTVSGYSITSDHAWSWVRQPPGRGLEWIGYISYSGITTYNPSLKSRVTMLRDTSKNQFSLRLSSVTAADTAVYYCARSLARTTAMDYWGQGSLVTVSSASTKGPSVFPLAPSSKSTSGGTAALGCLVKDYFPEPVTVSWNSGALTSGVHTFPAVLQSSGLYSLSSVVTVPSSSLGTQTYICNVNHKPSNTKVDKRVEPKSCDKTHTCPPCPAPELLGGPSVFLFPPKPKDTLMISRTPEVTCVVVDVSHEDPEVKFNWYVDGVEVHNAKTKPREEQYNSTYRVVSVLTVLHQDWLNGKEYKCKVSNKALPAPIEKTISKAKGQPREPRVYTLPPSREEMTENQVSLTCLVKGFYPSDIAVEWESNGQPENNYKTTPPVLVSDGSFTLYSWLTVDKSRWQQGNVFSCSVMHEALHNHYTQKSLSLSP light: not shown | 82.7
0 | IgG1 full-length heavy chain K392L/T394W/F405A/Y407V (SEQ ID NO: 41) with light chain SEQ ID NO: 61 (antibody, also called Sample No. 225) heavy: QVQLQESGPGLVRPSQTLSLTCTVSGYSITSDHAWSWVRQPPGRGLEWIGYISYSGITTYNPSLKSRVTMLRDTSKNQFSLRLSSVTAADTAVYYCARSLARTTAMDYWGQGSLVTVSSASTKGPSVFPLAPSSKSTSGGTAALGCLVKDYFPEPVTVSWNSGALTSGVHTFPAVLQSSGLYSLSSVVTVPSSSLGTQTYICNVNHKPSNTKVDKRVEPKSCDKTHTCPPCPAPELLGGPSVFLFPPKPKDTLMISRTPEVTCVVVDVSHEDPEVKFNWYVDGVEVHNAKTKPREEQYNSTYRVVSVLTVLHQDWLNGKEYKCKVSNKALPAPIEKTISKAKGQPREPQVYTLPPSREEMTKNQVSLTCLVKGFYPSDIAVEWESNGQPENNYLTWPPVLDSDGSFALVSKLTVDKSRWQQGNVFSCSVMHEALHNHYTQKSLSLSP light: not shown | 83.8
0 | IgG1 full-length heavy chain T366W/L368A/Y407V (SEQ ID NO: 26) with light chain SEQ ID NO: 61 (antibody) heavy: QVQLQESGPGLVRPSQTLSLTCTVSGYSITSDHAWSWVRQPPGRGLEWIGYISYSGITTYNPSLKSRVTMLRDTSKNQFSLRLSSVTAADTAVYYCARSLARTTAMDYWGQGSLVTVSSASTKGPSVFPLAPSSKSTSGGTAALGCLVKDYFPEPVTVSWNSGALTSGVHTFPAVLQSSGLYSLSSVVTVPSSSLGTQTYICNVNHKPSNTKVDKRVEPKSCDKTHTCPPCPAPELLGGPSVFLFPPKPKDTLMISRTPEVTCVVVDVSHEDPEVKFNWYVDGVEVHNAKTKPREEQYNSTYRVVSVLTVLHQDWLNGKEYKCKVSNKALPAPIEKTISKAKGQPREPQVYTLPPSREEMTKNQVSLWCAVKGFYPSDIAVEWESNGQPENNYKTTPPVLDSDGSFFLVSKLTVDKSRWQQGNVFSCSVMHEALHNHYTQKSLSLSP light: not shown | 85.3
0 | IgG4 full-length heavy chain Q347R/K360E/D399V/F405T/R409W (SEQ ID NO: 95) with light chain SEQ ID NO: 61 (antibody) heavy: QVQLQESGPGLVRPSQTLSLTCTVSGYSITSDHAWSWVRQPPGRGLEWIGYISYSGITTYNPSLKSRVTMLRDTSKNQFSLRLSSVTAADTAVYYCARSLARTTAMDYWGQGSLVTVSSASTKGPSVFPLAPCSRSTSESTAALGCLVKDYFPEPVTVSWNSGALTSGVHTFPAVLQSSGLYSLSSVVTVPSSSLGTKTYTCNVDHKPSNTKVDKRVESKYGPPCPPCPAPEFLGGPSVFLFPPKPKDTLMISRTPEVTCVVVDVSQEDPEVQFNWYVDGVEVHNAKTKPREEQFNSTYRVVSVLTVLHQDWLNGKEYKCKVSNKGLPSSIEKTISKAKGQPREPRVYTLPPSQEEMTENQVSLTCLVKGFYPSDIAVEWESNGQPENNYKTTPPVLVSDGSFTLYSWLTVDKSRWQEGNVFSCSVMHEALHNHYTQKSLSLSL light: not shown | 83.5
